Data on 17 molecules can be found in patent US20210206856A1 (PANDION OPERATIONS, published 2021).

Read-outs that look alike come from different tables or passages of the source.

Assay in all cases: cell binding
For experiment [1], the target named is T1, human MAdCAM expressed on cells (human, UniProt Q13477 19-382).
T1 construct: whole, on cells; also called MADCAM1
T1 sequence (looked up): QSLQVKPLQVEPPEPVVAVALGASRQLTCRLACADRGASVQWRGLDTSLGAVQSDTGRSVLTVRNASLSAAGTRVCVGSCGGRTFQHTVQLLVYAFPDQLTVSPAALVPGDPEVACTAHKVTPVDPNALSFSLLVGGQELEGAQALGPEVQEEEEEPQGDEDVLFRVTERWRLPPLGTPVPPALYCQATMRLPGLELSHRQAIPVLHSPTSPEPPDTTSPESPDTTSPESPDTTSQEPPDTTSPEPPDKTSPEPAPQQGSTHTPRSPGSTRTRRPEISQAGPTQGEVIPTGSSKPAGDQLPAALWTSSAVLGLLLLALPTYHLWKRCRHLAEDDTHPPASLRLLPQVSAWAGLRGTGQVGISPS

The target in experiment [2] is T2, mouse MAdCAM expressed on cells (mouse, UniProt Q61826 22-405).
T2 construct: whole, on cells
T2 sequence (looked up): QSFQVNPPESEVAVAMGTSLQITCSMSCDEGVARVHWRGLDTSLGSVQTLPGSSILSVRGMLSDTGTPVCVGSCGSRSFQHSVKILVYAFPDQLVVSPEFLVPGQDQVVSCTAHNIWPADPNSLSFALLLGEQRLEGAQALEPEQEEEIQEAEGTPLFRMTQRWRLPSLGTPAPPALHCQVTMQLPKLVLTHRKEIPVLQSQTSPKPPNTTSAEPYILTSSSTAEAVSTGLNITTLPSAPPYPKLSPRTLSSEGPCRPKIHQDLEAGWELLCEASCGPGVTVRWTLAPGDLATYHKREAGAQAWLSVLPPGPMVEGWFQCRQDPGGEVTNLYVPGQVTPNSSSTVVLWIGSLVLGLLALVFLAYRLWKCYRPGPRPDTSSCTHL

Experiment [3] deals with T1, human MAdCAM expressed on cells. The source holds these as a separate data set.
Experiment [4] addresses T2, mouse MAdCAM expressed on cells. This is another data set of the same source.

B1: MAdCAM Antibody Table 2 Clone 82 (antibody, human IgG1, V domains shown)
VH: QVQLVQSGAEVKKPGASVKVSCKASGYTFTRHWIHWVRQAPGQGLEWMGWINVKTGGAGYAQKFQGRVTMTRDTSTSTVYMELSSLRSEDTAVYYCARESSGWYGTDVWGQGTTVTVSS
VL: DIQMTQSPSSLSASVGDRATITCRASQSISNYLAWYQQKPGKAPKLLIYAASSLQSGVPSRFSGSGSGTDFTLTISSLQPEDFATYYCQQSNSFPLTFGGGTKVEIK
Regarding B1, the binding result in experiment [1] and in experiment [2] was “binds” each time.

B2: MAdCAM Antibody Table 1 Clone 12 (scFv)
scFv: QVQLVQSGAEVKKPGASVKVSCKASGYTFTGYYMHWVRQAPGQGLEWMGWIGPNSGDTNYAQKFQGRVTMTRDTSTSTVYMELSSLRSEDTAVYYCARDLDHNWYFDLWGRGTLVTVSSGGGGSGGGGSGGGGSGGGGSDIVMTQSPLSLPVTPGEPASISCRSSQSLLHSNGYNYLDWYLQKPGQSPQLLIYSSSNRAPGVPDRFSGSGSGTDFTLKISRVEAEDVGVYYCMQALHIPLTFGGGTKVEIK
As for B2, the results for the binding result in experiment [3] and in experiment [4] were “binds” and “no binding”, respectively.

B3: MAdCAM Antibody Table 2 Clone 76 (antibody, human IgG1, V domains shown)
VH: EVQLLESGGGLVQPGGSLRLSCAASGFTFDDYTMHWVRQAPGKGLEWVSDISGSGGSTYYADSVKGRFTISRDNSKNTLYLQMNSLRAEDTAVYYCAKDVVVAGTPLHFDYWGQGTLVTVSS
VL: DIQMTQSPSSLSASVGDRVTITCQASQDISNYLNWYQQKPGKAPKLLIYAASYLQSGVPSRFSGSGSGTDFTLTISSLQPEDFATYYCQQAHNYPITFGQGTRLEIK
As to B3, the binding result in experiment [1] and in experiment [2] was “binds” throughout.

B4: MAdCAM Antibody Table 2 Clone 77 (antibody, human IgG1, V domains shown)
VH: EVQLLESGGGLVQPGGSLRLSCAASEFTFSNAWMSWVRQAPGKGLEWVASISSTSAYIDYADSVKGRFTISRDNSKNTLYLQMNSLRAEDTAVYYCAREVVGATTFDYWGQGTLVTVSS
VL: DIQMTQSPSSLSASVGDRVTITCRASQSISTWLAWYQQKPGKAPKLLIYAASSLQSGVPSRFSGSGSGTDFTLTISSLQPEDFATYYCQQANAFPPTFGQGTRLEIK
In the case of B4, the binding result in experiment [1] and in experiment [2] was “binds” each time.

B5: MAdCAM Antibody Table 2 Clone 84 (antibody, human IgG1, V domains shown)
VH: QVQLVQSGAEVKKPGASVKVSCKASGGTFSSSAISWVRQAPGQGLEWMGWISAYNGYTNYAQKFQGRVTMTRDTSTSTVYMELSSLRSEDTAVYYCASRVHSGGSYPDDYWGQGTLVTVSS
VL: DIQMTQSPSSLSASVGDRVTITCQASEHIYNYLNWYQQKPGKAPKLLIYAASSLQSGVPSRFSGSGSGTDFTLTISSLQPEDFATYYCQQTDSIPITFGQGTKVEIK
B5: the binding result in experiment [1] and in experiment [2] was “binds” throughout.

B6: MAdCAM Antibody Table 1 Clone 13 (scFv)
scFv: EVQLLESGGGLVQPGGSLRLSCAASGFTFDDYAMHWVRQAPGKGLEWVSYIDASGTTIYYADSVKGRFTISRDNSKNTLYLQMNSLRAEDTAVYYCAKDQAAAGYWYFDLWGRGTLVTVSSGGGGSGGGGSGGGGSGGGGSDIQMTQSPSSLSASVGDRVTITCQASQDISNYLNWYQQKPGKAPKLLIYKASTLESGVPSRFSGSGSGTDFTLTISSLQPEDFATYYCQQSYSTPITFGQGTRLEIK
With B6, the binding result was “binds” in experiment [3] and “no binding” in experiment [4].

B7: MAdCAM Antibody Table 2 Clone 81 (antibody, human IgG1, V domains shown)
VH: EVQLLESGGGLVKPGGSLRLSCAASGFAFSSHWMHWVRQAPGKGLEWVAGTSGSGESRDYADFVKGRFTISRDDSKNTLYLQMNSLKTEDTAVYYCARETYYYYYMDVWGKGTTVTVSS
VL: DIQMTQSPSSLSASVGDRVTITCRASQGISNYLAWYQQKPGKAPKLLIYDAANLEGGVPSRFSGSGSGTDFTLTISSLQPEDFATYYCQQSDIFPPTFGQGTKVEIK
With B7, the binding result in experiment [1] and in experiment [2] was “binds” in each case.

B8: MAdCAM Antibody Table 2 Clone 83 (antibody, human IgG1, V domains shown)
VH: EVQLLESGGGLVQPGGSLRLSCAASGFTFSSYWMHWVRQAPGKGLEWVAAISYDGKYKDYEDSVKGRFTISRDNSKNTLYLQMNSLRAEDTAVYYCARENKQWLASFDYWGQGTLVTVSS
VL: DIQMTQSPSSLSASVGDRVTITCQASQDISNFVNWYQQKPGKAPKLLIYAANLRSGVPSRFSGSGSGTDFTLTISSLQPEDFATYYCQQANSFPVTFGPGTKVDIK
As to B8, the binding result in experiment [1] and in experiment [2] was “binds” in each case.

B9: MAdCAM Antibody Table 1 Clone 1 (scFv)
scFv: EVQLLESGGGLVQPGGSLRLSCAASGFTFSSYGMHWVRQAPGKGLEWVAVISDDGSDKYYADSVKGRFTISRDNSKNTLYLQMNSLRAEDTAVYYCTTSKYYYYYGMDVWGQGTTVTVSSGGGGSGGGGSGGGGSGGGGSDIQMTQSPSSLSASVGDRVTITCQASQDISKSLNWYQQKPGKAPKLLIYAASSLQSGVPSRFSGSGSGTDFTLTISSLQPEDFATYYCQQGYSTPLTFGGGTKVEIK
Regarding B9, in experiment [3], the binding result is reported as “binds”.

B10: MAdCAM Antibody Table 1 Clone 14 (scFv)
scFv: QVQLVQSGAEVKKPGSSVKVSCKASGYTFTDYHIHWVRQAPGQGLEWMGGIVPRSGSTTYAQKFQGRVTITADESTSTAYMELSSLRSEDTAVYYCAKDESSGWYYFDYWGQGTLVTVSSGGGGSGGGGSGGGGSGGGGSDIVMTQSPLSLPVTPGEPASISCRSSQSLLHSNGYNYLDWYLQKPGQSPQLLIYSAYNRASGVPDRFSGSGSGTDFTLKISRVEAEDVGVYYCMQALQTPLTFGQGTKVEIK
Take B10: the binding result was “binds” in experiment [3] and “no binding” in experiment [4].

B11: MAdCAM Antibody Table 1 Clone 25 (scFv)
scFv: QVQLVQSGAEVKKPGASVKVSCKASGYTLTTWYMYWVRQAPGQGLEWMGWINPNRGATNYAQKFQGRVTMTRDTSTSTVYMELSSLRSEDTAVYYCAKGDLWGAMDVWGQGTLVTVSSGGGGSGGGGSGGGGSGGGGSDIQMTQSPSSLSASVGDRVTITCRASDNIGSWLAWYQQKPGKAPKLLIYAASSLQSGVPSRFSGSGSGTDFTLTISSLQPEDFATYYCQQGYSTPPTFGQGTKVEIK
Regarding B11, the binding result in experiment [4] is given as “no binding”.

B12: MAdCAM Antibody Table 1 Clone 30 (scFv)
scFv: QVQLVQSGAEVKKPGASVKVSCKASGYTLTTWYMYWVRQAPGQGLEWMGWINPNRGATNYAQKFQGRVTMTRDTSTSTVYMELSSLRSEDTAVYYCAKGDLWGAMDVWGQGTLVTVSSGGGGSGGGGSGGGGSGGGGSDIQMTQSPSSLSASVGDRVTITCRASDNIGSWLAWYQQKPGKAPKLLIYAASSLQSGVPSRFSGSGSGTDFTLTISSLQPEDFATYYCQQGYSTPPTFGQGTKVEIK
Regarding B12, the binding result in experiment [4] is “no binding”.

B13: MAdCAM Antibody Table 1 Clone 8 (scFv)
scFv: EVQLLESGGGLVQPGGSLRLSCAASGFMFGDYAMHWVRQAPGKGLEWVSAISGSGGSTYYADSVKGRFTISRDNSKNTLYLQMNSLRAEDTAVYYCAKDLVVAGIWYFDLWGRGTLVTVSSGGGGSGGGGSGGGGSGGGGSDIQMTQSPSSLSASVGDRVTITCRASQGISNNLNWYQQKPGKAPKLLIYDASSLESGVPSRFSGSGSGTDFTLTISSLQPEDFATYYCQQTHSFPSTFGQGTKLEIK
Regarding B13, the binding result in experiment [4] is on record as “no binding”.

B14: MAdCAM Antibody Table 2 Clone 79 (antibody, human IgG1, V domains shown)
VH: EVQLLESGGGLVKPGGSLRLSCAASGFTFDDYAMHWVRQAPGKGLEWVASITSSSAFIDYAASVKGRFTISRDDSKNTLYLQMNSLKTEDTAVYYCARERVDWNSYFDLWGRGTLVTVSS
VL: EIVMTQSPATLSVSPGERATLSCRASQGISNSYLAWYQQKPGQAPRLLIYGASTRATGIPARFSGSGSGTEFTLTISSLQSEDFAVYYCQQYYTYPPTFGPGTKVDIK
B14: the binding result in experiment [1] and in experiment [2] was “binds” in each case.

B15: MAdCAM Antibody Table 2 Clone 80 (antibody, human IgG1, V domains shown)
VH: EVQLLESGGGLVQPGGSLRLSCAASGFTFDDYAMHWVRQAPGKGLEWVSAISGSGGSTYYADSVKGRFTISRDNSKNTLYLQMNSLRAEDTAVYYCAKDLGVVVPAALDYWGQGTTVTVSS
VL: DIQMTQSPSSLSASVGDRVTITCQASQDISNHLNWYQQKPGKAPKLLIYDASNLEAGVPSRFSGSGSGTDFTLTISSLQPEDFATYYCQQSYSTPLTFGGGTKVEIK
As to B15, the binding result is recorded as “binds” in experiment [1] and “no binding” in experiment [2].

B16: MAdCAM Antibody Table 1 Clone 15 (scFv)
scFv: QVQLVQSGAEVKKPGSSVKVSCKASGYTFTNYYMHWVRQAPGQGLEWMGGIIPIVDRVKYAQKFQGRVTITADESTSTAYMELSSLRSEDTAVYYCAKGRYTVNYYYGMDVWGQGTTVTVSSGGGGSGGGGSGGGGSGGGGSDIQMTQSPSSLSASVGDRVTITCQANQDISNYLNWYQQKPGKAPKLLIYRASKLEAGVPSRFSGSGSGTDFTLTISSLQPEDFATYYCQQSSEIPYSFGQGTKLEIK
B16: the binding result in experiment [3] is on record as “binds”; in experiment [4], “no binding”.

B17: MAdCAM Antibody Table 2 Clone 78 (antibody, V domains shown)
VH: QVQLVQSGAEVKKPGSSVKVSCKASGGTFSSYAISWVRQAPGQGLEWMGWMEPHTGNTRYAQKFQGRVTITADESTSTAYMELSSLRSEDTAVYYCAKGGFSWFDPWGQGTLVTVSS
VL: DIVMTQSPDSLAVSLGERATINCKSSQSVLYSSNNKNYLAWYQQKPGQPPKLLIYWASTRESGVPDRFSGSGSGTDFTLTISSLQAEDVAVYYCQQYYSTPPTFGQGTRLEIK
Regarding B17, the binding result in experiment [1] and in experiment [2] was “binds” in each case.
